According to patent US11338018B2, “Adrenocorticotropic hormone-based pharmaceutical formulations and methods for fabricating and using thereof” (Harrow IP, LLC, priority 2016, dated 2022):

Assay: Comparative potency (USP corticotropin units) to assess formulation shelf stability
Assay type: physicochemical
Set-up: key to Potency: “Failed” refers to the potency after the testing being outside of the USP Corticotropin Units 80-125% range required by the U.S. Pharmacopeia.; “Passed” refers to the potency after the testing being within the 80-125% range required by the U.S. Pharmacopeia
Procedure: The term “potency” is defined in accordance with the U.S. Pharmacopeia (USP) and refers to the quantity of an active pharmaceutical component in the composition. In accordance with the requirements of the USP, the potency that is required of the corticotropin compositions described below is not less than 80.0 percent and not more than 125.0 percent of the potency stated on the label in USP corticotropin units.
Several compositions were prepared according to the methods illustrated in Examples 1-3. Table 1 provides a comparison of their respective potencies for showing shelf stability. The terms “recombinant porcine” and “recombinant human” refer to synthetic ACTH having the same amino acid sequence as the naturally occurring polypeptide derived from pigs and humans, respectively. […] Unexpectedly, it was observed that addition of L-Methionine in combination with Mannitol improved the shelf stability of Corticotropin Active Pharmaceutical Ingredient. FIGS. 1-4 show potencies of various exemplary compositions from Day 0 to Day 365.

Sequence | Potency (Cysteine, 1 mg/mL, Mannitol None, pH 4.5-6.5, after 30 days) | Potency (Cysteine, 2 mg/mL, Mannitol 50 mg/mL, pH 4.0-6.0, after 10 days, both accelerated (room temperature) and refrigerated conditions) | Potency (Cysteine, 2 mg/mL, Mannitol 50 mg/mL, pH 4.5-6.6, after 30 days) | Potency (Methionine, 2 mg/mL, Mannitol 50 mg/mL, pH 4.0-6.0, after 10 days, both accelerated (room temperature) and refrigerated conditions) | Potency (Methionine, 3 mg/mL + POLOXAMER 188, 3 mg/mL, Mannitol 50 mg/mL, pH 5.0-6.5, stable after 360 days) | Potency (Methionine, 3 mg/mL, Mannitol 50 mg/mL, pH 4.0-6.0, stable after 365 days) | Potency (Cysteine, 2 mg/mL, Mannitol 50 mg/mL, pH 4.5-6.5, after 60 days) | label amount remaining intact (Cysteine, 2 mg/mL, Mannitol 50 mg/mL, pH 4.5-6.5, day 90) | Potency (Methionine, 2 mg/mL, Mannitol 50 mg/mL, pH 4.5-6.5, stable after 180 days)
SYSMEHFRWGKPVGKKRRPVKVYPNGAEDELAEAFPLEF (Sythetic construct) [Synthetic porcine] | Failed^1 after | Failed after | Failed after | Failed after | Passed, (“Passed” refers to the potency after the testing being within the 80-125% range required by the U.S. Pharmacopeia.) | Passed, (“Passed” refers to the potency after the testing being within the 80-125% range required by the U.S. Pharmacopeia.) | – | – | –
SYSMEHFRWGKPVGKKRRPVKVYPNGAEDESAEAFPLEF [Recombinant human] | – | – | – | – | – | – | Failed after | ^3Followed by even more substantial failure by day 90 (when only about 16.9% of the label amount remaining intact). | Passed^4, (“Passed” refers to the potency after the testing being within the 80-125% range required by the U.S. Pharmacopeia.)
